Laboratory results as given in the supplement of paper PMC10567573.

B1: LOXL2 (parent)
chain: RLLRFSSQIHNNGQSDFRPKNGRH

Variants of: B1
Test: protein stability index of a GFP-peptide fusion (GPS, HEK-293T) (PSI 1-6); higher = more stable
Conditions: c terminus: a fixed tail appended
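Further: lentivirally expressed fusions sorted by FACS into six bins by GFP to DsRed ratio, PSI derived from sequencing read proportions per bin multiplied by bin number.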

Variant | protein stability index
RLLRFSSQITNNGQSDFRPKNGRH | 2.89
RLLRFSSQIMNNGQSDFRPKNGRH | 2.47
RLLRFSSQILNNGQSDFRPKNGRH | 2.14
RLLRFSSQINNNGQSDFRPKNGRH | 3.06
RLLRFSSQIGNNGQSDFRPKNGRH | 2.57
RLLRFSSQIYNNGQSDFRPKNGRH | 1.87
RLLRFSSQIINNGQSDFRPKNGRH | 2.24
RLLRFSSQIANNGQSDFRPKNGRH | 3.28
RLLRFSSQIQNNGQSDFRPKNGRH | 2.83
RLLRFSSQIDNNGQSDFRPKNGRH | 3.68
RLLRFSSQIPNNGQSDFRPKNGRH | 3.12
RLLRFSSQIENNGQSDFRPKNGRH | 3.43
RLLRFSSQICNNGQSDFRPKNGRH | 2.46
RLLRFSSQIFNNGQSDFRPKNGRH | 2.13
RLLRFSSQIVNNGQSDFRPKNGRH | 2.68
RLLRFSSQISNNGQSDFRPKNGRH | 2.71
RLLRFSSQIRNNGQSDFRPKNGRH | 2.36
RLLRFSSQIKNNGQSDFRPKNGRH | 2.8
RLLRFSSQIWNNGQSDFRPKNGRH | 2.13
RLLRFSSQIHRNGQSDFRPKNGRH | 2.2
RLLRFSSQIHSNGQSDFRPKNGRH | 2.54
RLLRFSSQIHKNGQSDFRPKNGRH | 2.29
RLLRFSSQIHCNGQSDFRPKNGRH | 2.17
RLLRFSSQIHYNGQSDFRPKNGRH | 2.17

Variant | protein stability index
RLLRFSSQIHHNGQSDFRPKNGRH | 2.8
RLLRFSSQIHFNGQSDFRPKNGRH | 2.23
RLLRFSSQIHINGQSDFRPKNGRH | 2.39
RLLRFSSQIHENGQSDFRPKNGRH | 2.86
RLLRFSSQIHTNGQSDFRPKNGRH | 2.7
RLLRFSSQIHGNGQSDFRPKNGRH | 2.23
RLLRFSSQIHQNGQSDFRPKNGRH | 2.46
RLLRFSSQIHLNGQSDFRPKNGRH | 2.69
RLLRFSSQIHWNGQSDFRPKNGRH | 2.51
RLLRFSSQIHDNGQSDFRPKNGRH | 3.29
RLLRFSSQIHPNGQSDFRPKNGRH | 2.65
RLLRFSSQIHVNGQSDFRPKNGRH | 4.07
RLLRFSSQIHMNGQSDFRPKNGRH | 2.81
RLLRFSSQIHANGQSDFRPKNGRH | 2.84
RLLRFRSQIHNNGQSDFRPKNGRH | 2.99
RLLRFFSQIHNNGQSDFRPKNGRH | 2.09
RLLRFWSQIHNNGQSDFRPKNGRH | 2.56
RLLRFHSQIHNNGQSDFRPKNGRH | 2.37
RLLRFASQIHNNGQSDFRPKNGRH | 2.65
RLLRFTSQIHNNGQSDFRPKNGRH | 2.46
RLLRFMSQIHNNGQSDFRPKNGRH | 2.51
RLLRFKSQIHNNGQSDFRPKNGRH | 3.05
RLLRFDSQIHNNGQSDFRPKNGRH | 3.81
RLLRFYSQIHNNGQSDFRPKNGRH | 2.89

Variant | protein stability index
RLLRFGSQIHNNGQSDFRPKNGRH | 2.64
RLLRFQSQIHNNGQSDFRPKNGRH | 2.71
RLLRFNSQIHNNGQSDFRPKNGRH | 3.03
RLLRFPSQIHNNGQSDFRPKNGRH | 3.41
RLLRFLSQIHNNGQSDFRPKNGRH | 2.45
RLLRFCSQIHNNGQSDFRPKNGRH | 3.08
RLLRFESQIHNNGQSDFRPKNGRH | 3.62
RLLRFVSQIHNNGQSDFRPKNGRH | 3.85
RLLRFISQIHNNGQSDFRPKNGRH | 3.34
RLLRFSYQIHNNGQSDFRPKNGRH | 2.25
RLLRFSMQIHNNGQSDFRPKNGRH | 1.79
RLLRFSEQIHNNGQSDFRPKNGRH | 2.79
RLLRFSPQIHNNGQSDFRPKNGRH | 4.2
RLLRFSQQIHNNGQSDFRPKNGRH | 2.18
RLLRFSIQIHNNGQSDFRPKNGRH | 1.89
RLLRFSAQIHNNGQSDFRPKNGRH | 2.5
RLLRFSTQIHNNGQSDFRPKNGRH | 2.21
RLLRFSWQIHNNGQSDFRPKNGRH | 2.06
RLLRFSCQIHNNGQSDFRPKNGRH | 2.41
RLLRFSLQIHNNGQSDFRPKNGRH | 1.78
RLLRFSRQIHNNGQSDFRPKNGRH | 2.25
RLLRFSVQIHNNGQSDFRPKNGRH | 2.04
RLLRFSGQIHNNGQSDFRPKNGRH | 2.46
RLLRFSNQIHNNGQSDFRPKNGRH | 2.79

Variant | protein stability index
RLLRFSKQIHNNGQSDFRPKNGRH | 2.21
RLLRFSFQIHNNGQSDFRPKNGRH | 1.79
RLLRFSDQIHNNGQSDFRPKNGRH | 3.57
RLLRFSHQIHNNGQSDFRPKNGRH | 2.44
RVLRFSSQIHNNGQSDFRPKNGRH | 3.52
RHLRFSSQIHNNGQSDFRPKNGRH | 4.21
RPLRFSSQIHNNGQSDFRPKNGRH | 4.63
RQLRFSSQIHNNGQSDFRPKNGRH | 4.12
RWLRFSSQIHNNGQSDFRPKNGRH | 2.71
RMLRFSSQIHNNGQSDFRPKNGRH | 3.27
RGLRFSSQIHNNGQSDFRPKNGRH | 4.6
RSLRFSSQIHNNGQSDFRPKNGRH | 4.59
RILRFSSQIHNNGQSDFRPKNGRH | 3.28
RNLRFSSQIHNNGQSDFRPKNGRH | 4.58
RYLRFSSQIHNNGQSDFRPKNGRH | 3.35
RKLRFSSQIHNNGQSDFRPKNGRH | 3.91
RTLRFSSQIHNNGQSDFRPKNGRH | 4.69
RRLRFSSQIHNNGQSDFRPKNGRH | 4.07
RLLRRSSQIHNNGQSDFRPKNGRH | 3.69
RLLRASSQIHNNGQSDFRPKNGRH | 3.46
RLLRMSSQIHNNGQSDFRPKNGRH | 2.77
RLLRCSSQIHNNGQSDFRPKNGRH | 3.06
